In experiment [1] the target is Augmin-GFP (purified mitotic Augmin complex) (Drosophila | Drosophila (endogenous in embryos)) (UniProt Q9W0G7).
For experiment [2] the target is unchanged. As to the kind of experiment: fluorescence microscopy of junctions between microtubules loaded with purified complexes; as the junction assay, but with HiLyte 647-labelled GMPCPP MT seeds (1:10) to mark the minus ends.
Experiment [3] has the same target. As to the kind of experiment: fluorescence microscopy of junctions between microtubules loaded with purified complexes; taxol-stabilised Rhodamine-MTs incubated with γ-TuRC-GFP and HiLyte Fluor 488-MTs incubated with Augmin-GFP, each pelleted through 15% glycerol, mixed 1:1 for 10 min at room temperature, fixed and ….

Turning to “γ-TuRC-GFP (purified mitotic γ-Tubulin Ring Complex) (from UniProt P42271 1-457; P42271 1-457)”, in experiment [1], the x50 (time at which 50% of Tubulin polymerisation was achieved) with Augmin-GFP added to γ-TuRC-GFP; γ-TuRC-GFP alone 16.5 mins, control 31.5mins was determined as 9.5 min. The percent of γ-TuRC-RhodMTs generating branches on Augmin-488MTs in experiment [2] came to 64%. In experiment [3], the percent of γ-TuRC-containing RhodMTs that terminate at an Augmin-containing 488MT was found to be 55%.

The values are drawn from paper PMC6959987.
